Experimental data: patent publication US20210269549A1, “ANTI-SAS1B ANTIBODIES, ASSOCIATED METHODS OF USE, AND COMPOSITIONS AND METHODS FOR DETECTING AND TREATING CANCER” (UNIVERSITY OF VIRGINIA PATENT FOUNDATION, priority 2015, published 2021)
Numbering of substitutions follows the chain as printed. “Also recorded” adds a separate entry of the source. Values belong to the molecule of their own block, whether it stands above or below them.

Columns and labels:
[1] = test system: renal cell carcinoma cell line (M1); experiment: Morphology of renal cell carcinoma cell line (M1) after 93 h of antibody drug treatment; format: cell-based; conditions: 1 nM mAb with 15 nM Fab-DMDM
Experimental: The morphology of renal cell carcinoma cell line (M1) after 93 h of anti-EGFR antibody drug treatment was examined.

human SAS1B = target: T1, human SAS1B (Homo sapiens, UniProt Q6HA08); experiment: Immunoprecipitation of SAS1B from HEK293T cells transfected with SAS1B; format: binding; conditions: for Pull down (immunoprecipitation) of SAS1B: HEK293T extract, western blot detection with anti-His mAb
T1 construct: made in house; host or cells: E. coli
T1 sequence (Q6HA08 24-431): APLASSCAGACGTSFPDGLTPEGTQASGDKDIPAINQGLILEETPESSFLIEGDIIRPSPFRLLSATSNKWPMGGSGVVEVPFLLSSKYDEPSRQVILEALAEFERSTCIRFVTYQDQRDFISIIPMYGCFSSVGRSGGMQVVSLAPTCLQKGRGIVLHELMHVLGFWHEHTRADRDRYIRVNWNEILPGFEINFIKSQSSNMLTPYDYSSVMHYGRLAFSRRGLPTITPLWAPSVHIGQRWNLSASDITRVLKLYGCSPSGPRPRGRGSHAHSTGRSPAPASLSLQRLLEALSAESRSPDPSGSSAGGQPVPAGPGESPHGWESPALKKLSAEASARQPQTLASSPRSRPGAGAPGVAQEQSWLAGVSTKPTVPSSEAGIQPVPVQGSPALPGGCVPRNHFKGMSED
Experimental: HEK293T cells were transfected with human SAS1B full length cDNA for 66 h. Immuno-precipitation of SAS1B was completed with SB1, SB2, SB4 and SB5 monoclonal antibodies. Following SAS1B immunoprecipitation, detection was completed with mouse anti-His tag mAb at C-terminus. Immunoprecipitated samples were analyzed by protein staining with Coomassie staining. Immunoprecipitated sample was also analyzed by MS/MS analysis. VH and VL chain CDR1-3 regions were sequenced for the confirmed anti-SAS1B mAbs. Immunoprecipitation was performed with N-terminal mAbs from transfected cells extracted with RIPA/protease inhibitor. Detection of the SAS1B immunoprecipitation product was completed with HRP peroxidase conjugated mouse anti-His mAb at 1:3000 or 1:5000 dilution. HEK293T cells were seeded at 250,000. The cells were transfected with […] of SAS1B-SVA plasmid into each of the two T-75 flasks (at ˜90% confluency) for ˜66 h at 37 C and 5% CO2. Following transfection, two saline washes were completed with 1×HBSS. Lysed cells were incubated with RIPA+protease inhibitor for one hour on ice with mixing to ensure homogenous lysate and supernatant used for IP (RIPA: 25 mM Tris-HCl (pH 7.6), 150 mM NaCl, 1% NP-40, 1% sodium deoxycholate, 0.1% SDS). For the immunoprecipitation, 3 mg magnetic bead coupled protein G were suspended and incubated with […] of each SAS1B monoclonal antibody for 10 minutes. The magnetic bead/antibody complex was washed with PBST once, followed by incubation with […] antigen extract for 20 min. The post-immunoprecipitation sample was saved for comparison. Three 200 mL washes with washing buffer+protease inhibitor were completed. The fourth wash used only 100 mL of wash buffer+protease inhibitor. The magnetic beads were transferred to a new micro-centrifuge tube. 1× Lamelli buffer was added to bead/antibody/antigen complex for subsequent analysis. The sample was boiled at 98° C. for 10 min in 1× Lamelli buffer and the supernatant transferred to a new tube. The immunoprecipitation sample was analyzed by western blot and Coomassie blue staining. The SDS-PAGE samples (pre-IP, IP, and post IP extracts) were resolved with 12% TGX Criterion gels at 30 milliamps for 1 hr. Coomassie stain was added to determine the profile of IP samples. Following SDS-PAGE resolution, bands were transferred to nitrocellulose membrane at 1 Amp for 1 h at 5° C. The membrane was blocked with 5% dry milk/PBST, and incubated with mouse anti-His monoclonal antibody conjugated with HRP for 1 hr at RT at 1:3000 or 1:5000 dilution. The membranes were imaged with TMB solution.
A unique ˜52 kD band was recovered in SB5 IP. SB5 (IgG2b) has a different isotype than SB1 (IgG2a), and 3A7 (IgG1). The ˜52 kD band from the SB5 immunoprecipitation was isolated, restained with Coomassie blue and submitted for MS/MS to verify protein identity. The MS/MS nanospray ion source was operated at 2.5 kV. The digest was analyzed using the rapid switching capability of the instrument acquiring a full screen mass spectrum to determine peptide molecular weights followed by product ion spectra to determine amino acid sequence in sequential scans. This mode of analysis produces about 20,000 MS/MS spectra of ions ranging in abundance over several orders of magnitude. Not all MS/MS spectra are derived from peptides. The data were analyzed using the Sequest search algorithm against Uniprot Human and SwissProt.

[2] = test system: MPanc96 cells (pancreatic ductal adenocarcinoma cell line); experiment: Live indirect immunofluorescence cell surface staining, MPanc96; format: cell-based, human; conditions: for Cells staining for cell surface SAS1B: MPanc96, primary antibody 20 ug/mL; for Immunoreaction with cell surface localized SAS1B: live MPanc96, primary antibodies 20 ug/mL
Experimental: (§1) Live MPanc96 cells (pancreatic ductal adenocarcinoma cell line) were incubated with different anti-SAS1B monoclonal antibodies (as well as DAPI stain) for nucleus localization. Cells were fixed and permeabilized after primary and secondary antibody incubation thus fluorescence staining observed represents surface localized SAS1B. Monoclonal antibodies SB4 and SB5 were used, as well as normal rabbit or mouse IgG's as a negative control. All primary antibodies were used at a concentration of 20 ug/mL.
(§2) The live indirect immunofluorescence protocol is as follows. The cells were dissociated with Acutase and plated on fibronectin coated coverslips. MPanc96 cells were allowed to grow 2-3 days and 366 cells were allowed to grow for 3-4 days. The cells were blocked (blocking 1 solution) with 5% NGS in media for 30 min at RT and then blocked with 5% NGS in chilled media+0.1% sodium azide (blocking 2 solution) for 30 min on ice. The primary antibody (SB4, SB5 or control) was added at 20 ug/mL in blocking 2 solution for 2 hours on ice at 4° C. The cells were washed 3× for 5 minutes each on ice. The secondary antibody (goat anti-Ms/Rb Alexa488 (1:500)) was added in blocking 2 solution for 1 hour in dark on ice at 4° C. The cells were washed 3× for 5 min each on ice and then were fixed with 4% PFA-PBS for 15 min in the dark at RT. The cells were washed 2× for 5 min each at RT and then stained with DAPI stain (1:1000) for 10 min at RT. The cells were washed 2× for 5 min each at RT and then were treated with prolong gold antifade. […] About 10-20% of the SB5 treated cells stained for SASB1.

[3] = test system: PDAC cell line known as 366; experiment: Live indirect immunofluorescence cell surface staining, 366; format: cell-based, human; conditions: for Cells staining for cell surface SAS1B: 366, primary antibody 20 ug/mL; for Recognition of cell surface SAS1B: live 366 cells, primary antibodies 20 ug/mL
Experimental: as §1, §2

B1: SB2: mouse anti-human SAS1B monoclonal antibody, IgG2b; VH SEQ ID NO:14, VL SEQ ID NO:15 (antibody, listed as Mus musculus, V domains shown)
VH: EVQLQQSGPELVKPGSSVKISCKASGYTFTDYNMVWVKQSHGKSLEWIGAVNPNNGGTSYNQKFKGKATLTVDKSSSTAYMELRSLTSEDSAVYYCVPNWDWFAYWGQGTLVTVSA
VL: DVLMTQTPLSLPVSLGDQASISCRSSQSLVHSNGNTYLEWYLQKPGQSPNLLIYKVSNRFSGVPDRFSGSGSGTDFTLKISRVEAEDLGVYYCFQGSHVPFTFGSGTKLEIK
Cell killing and inhibition of cell proliferation (morphology) [1]: a large number of rounded dead cells | Pull down (immunoprecipitation) of SAS1B (human SAS1B): pulled down recombinant SAS1B

B3: SB5: mouse anti-human SAS1B monoclonal antibody, IgG2b; VH SEQ ID NO:16, VL SEQ ID NO:18 (antibody, listed as Mus musculus, V domains shown)
VH: B1 VH with A24P, V37M, V51I, S59T, V97A
VL: B1 VL with T7I, L29I, V30L, N50K
Cells staining for cell surface SAS1B [2]: 10-20% | Immunoreaction with cell surface localized SAS1B [2]: immunoreact with cell surface localized SAS1B | Cell killing and inhibition of cell proliferation (morphology) [1]: clear cell killing and inhibition of cell proliferation properties | Depletion of SAS1B in post IP sample compared to starting material (human SAS1B): relative depletion of antigen in post IP samples | MS/MS analysis of the IP sample (~52 kD band) (human SAS1B): confirmed the specificity of the mAb for Human SAS1B protein | Pull down (immunoprecipitation) of SAS1B (human SAS1B): pulled down; also recorded: immunoprecipitate “native” SAS1B | Cells staining for cell surface SAS1B [3]: 10-20% | Recognition of cell surface SAS1B [3]: recognize cell surface SAS1B in pancreatic cancer cell lines

B5: SB1: mouse anti-SAS1B monoclonal antibody, IgG2a; VH SEQ ID NO:12, VL SEQ ID NO:13 (antibody, listed as Mus musculus, V domains shown)
VH: EVQLQQSGPELVKPGSSVKISCKASGYTFTDYNMDWVKQSHGKSLEWIGAINPNNGGTSYNQKFKGKATLTVDKSSSTAYMELRSLTSEDSAVYYCATNEYWGQGTTLTVSS
VL: NIVMTQSPKSMSMSVGERVTLSCKASENVGTYVSWYQQKPEQSPKLLIYGASNRYTGVPDRFTGSGSATDFTLTISSVQAEDLADYHCGQSYSYPWTFGGGTKLEIK
Depletion of SAS1B in post IP sample compared to starting material (human SAS1B): relative depletion of antigen in post IP samples | Pull down (immunoprecipitation) of SAS1B (human SAS1B): pulled down

More lines, main results first:

Depletion of SAS1B in post IP sample compared to starting material (human SAS1B): clear relative reduction of SAS1B
B2: SB4: mouse anti-human SAS1B monoclonal antibody, IgG2a; VH SEQ ID NO:16, VL SEQ ID NO:17 (antibody, listed as Mus musculus, V domains shown)
VH: B1 VH with A24P, V37M, V51I, S59T, V97A
VL: B1 VL with L29I, V30L, N50K
Cells staining for cell surface SAS1B [2]: 65-80% | Immunoreaction with cell surface localized SAS1B [2]: immunoreact with cell surface localized SAS1B | Pull down (immunoprecipitation) of SAS1B (human SAS1B): pulled down recombinant SAS1B; also recorded: immunoprecipitate “native” SAS1B | Cells staining for cell surface SAS1B [3]: 65-80% | Recognition of cell surface SAS1B [3]: recognize cell surface SAS1B in pancreatic cancer cell lines

Pull down (immunoprecipitation) of SAS1B (human SAS1B): immunoprecipitate “native” SAS1B
B4: SB3: mouse anti-human SAS1B monoclonal antibody, IgG2b; VH SEQ ID NO:14, VL SEQ ID NO:15 (antibody, listed as Mus musculus, V domains shown)
VH: B1 VH
VL: B1 VL
